Target: T1, nbr1_human NBR1 (UniProt Q14596)
T1 sequence: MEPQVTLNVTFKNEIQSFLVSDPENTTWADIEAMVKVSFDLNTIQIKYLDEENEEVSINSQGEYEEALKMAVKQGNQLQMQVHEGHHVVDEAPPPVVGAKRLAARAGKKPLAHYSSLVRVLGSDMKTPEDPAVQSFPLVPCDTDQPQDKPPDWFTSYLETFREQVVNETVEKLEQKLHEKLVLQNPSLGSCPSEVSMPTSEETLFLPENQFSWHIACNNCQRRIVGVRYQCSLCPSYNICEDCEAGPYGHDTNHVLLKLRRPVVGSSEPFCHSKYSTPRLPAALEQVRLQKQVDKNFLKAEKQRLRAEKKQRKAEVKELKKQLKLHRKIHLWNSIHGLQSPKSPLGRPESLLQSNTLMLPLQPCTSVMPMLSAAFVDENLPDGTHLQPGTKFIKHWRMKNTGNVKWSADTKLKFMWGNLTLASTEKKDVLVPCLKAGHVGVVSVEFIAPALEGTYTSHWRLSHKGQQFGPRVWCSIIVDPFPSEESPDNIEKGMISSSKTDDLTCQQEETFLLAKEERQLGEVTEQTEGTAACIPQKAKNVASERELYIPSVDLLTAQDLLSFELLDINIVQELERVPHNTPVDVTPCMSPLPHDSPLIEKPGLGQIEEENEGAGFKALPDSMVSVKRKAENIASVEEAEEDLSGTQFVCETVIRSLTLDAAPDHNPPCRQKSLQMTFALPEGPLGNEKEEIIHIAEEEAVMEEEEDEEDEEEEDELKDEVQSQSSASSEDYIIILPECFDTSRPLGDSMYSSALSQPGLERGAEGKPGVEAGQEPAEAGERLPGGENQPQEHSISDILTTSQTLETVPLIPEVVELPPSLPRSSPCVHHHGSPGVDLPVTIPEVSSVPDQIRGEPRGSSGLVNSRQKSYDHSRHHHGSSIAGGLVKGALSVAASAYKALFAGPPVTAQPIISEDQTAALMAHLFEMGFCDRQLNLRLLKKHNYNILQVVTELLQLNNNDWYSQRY

| effect of a mutation on the interaction | Substance |
| --- | --- |
| decreasing interaction | Microtubule-associated protein 1 light chain 3 beta (Homo sapiens) (from UniProt Q9GZQ8) R10A;R11A |
| disrupting interaction | Microtubule-associated protein 1 light chain 3 beta (Homo sapiens) (from UniProt Q9GZQ8) R70A |

Reference: IntAct's records for PubMed 19250911
